Measured values: PMC2358973, “A Cysteine Protease Is Critical for Babesia spp. Transmission in Haemaphysalis Ticks” (PLoS Pathogens, 2008)

How the values were obtained:
[1] = tested on: T1, Cc1cc(=O)oc2cc(NC(=O)[C@H](CCCNC(=N)N)NC(=O)[C@H](CCCNC(=N)N)NC(=O)OCc3ccccc3)ccc12; experiment: fluorogenic hydrolysis assay, Michaelis-Menten fit; assay type: biochemical, Haemaphysalis longicornis; conditions: 25 mM citric acid/sodium phosphate, pH 6.0, 5 mM DTT
T1 construct: partial coding region (pPICZC) expressed in Pichia pastoris GS115, HiTrap chelating column purified; precursor 341 residues with 17-residue signal peptide
Source text: (§1) fluorogenic hydrolysis assay, Michaelis-Menten fit on longipain

[2] = tested on: T2, Cc1cc(=O)oc2cc(NC(=O)[C@H](CCCNC(=N)N)NC(=O)[C@H](Cc3ccccc3)NC(=O)OCc3ccccc3)ccc12; experiment: fluorogenic hydrolysis assay, Michaelis-Menten fit; assay type: biochemical, Haemaphysalis longicornis; conditions: 25 mM citric acid/sodium phosphate, pH 6.0, 5 mM DTT
T2 construct: partial coding region (pPICZC) expressed in Pichia pastoris GS115, HiTrap chelating column purified; precursor 341 residues with 17-residue signal peptide
Source text: as §1

longipain (Haemaphysalis longicornis) gave a Km [1] of 16.0 ± 0.2 µM, a kcat [1] of 800 s⁻¹ and a kcat/Km [1] of 5e+07 M⁻¹ s⁻¹. The Km [2] was 12.1 ± 0.08 µM, the kcat [2] was 550 s⁻¹ and the kcat/Km [2] was 4.5e+07 M⁻¹ s⁻¹.
